Experimental data: the supplement of paper PMC9170038

Test system: MS2 coat protein
Test: apparent KD of MS2 coat protein; designed switch direction (-1 OFF switch, 1 ON switch): 1; higher = weaker reporter binding
Method in brief: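 For each design, the apparent KD is the median over clusters of curves fitted to normalised cluster fluorescence. Clusters held RNA switches with common flanks, transcribed on Illumina chips by stalled E. coli RNA polymerase. These were titrated with SNAP-549-labelled MS2 coat protein, doubling from 0.7 or 1.5 nM to 3 µM, without input, with 200 uM small-molecule ligand, or with an oligonucleotide input.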

[1] = Eterna round: R95, input ligand: FMN 200 uM
[2] = Eterna round: R95, input ligand: microRNA oligo, concentration not stated
[3] = Eterna round: R95, input ligand: none
[4] = input ligand: microRNA oligo, concentration not stated

| Sequence | apparent KD of MS2 coat protein [1] [nM] | apparent KD of MS2 coat protein [2] [nM] | apparent KD of MS2 coat protein [3] [nM] | apparent KD of MS2 coat protein (input ligand: FMN 200 uM) [nM] | apparent KD of MS2 coat protein [4] [nM] | apparent KD of MS2 coat protein (input ligand: none) [nM] |
| --- | --- | --- | --- | --- | --- | --- |
| AGUCCAGCCUGAGCUGGACAAAAGCAUGUACAUGAGGAUCACCCAUGUUCAUGUGCAAGCUUUUUGCUCGUCUUAAA [Zipper 52 - 4] (puzzle: Sensor for hsa-mir-208a) | 64.9 | 11.4 | 71.2 |  |  |  |
| AGUCUACGGAAACGUAGACAGUGGAGCGUACAUGAGGAUCACCCAUGUCAUGUGAGAGCUACUUGUUCGUCUUGAGC [SENSOR #5] (puzzle: Sensor for hsa-mir-208a) | 26.4 | 18.5 | 26.8 |  |  |  |
| AGUGCAGCCUGAGCUGCACAAAAGCAUGUACAUGAGGAUCACCCAUGUCAUGUACAAGCUUUUUGCUCGUCUUAAAA [Mat - hsa-mir-208a - Mod of JL - D20] (puzzle: Sensor for hsa-mir-208a) | 529 | 15.4 | 688 |  |  |  |
| AUAAAACAUGAGGAUCACCCAUGUAAAAAUAUGGGAGGAUAUGCGAAAUAAAAUAAAUAAGCAGAAGGCCUAAAAA [SS! MT 19] (Eterna round: R96, puzzle: Same State 1) |  |  |  | 21.1 | 52.8 | 62.7 |
| AUAAAACAUGAGGAUCACCCAUGUCAACAAAGUCGAGGAUAUGGGCAAAUAAAAGAAUAACCAGAAGGCGAAUAAU [salish99_ss1_r3_053] (puzzle: Same State 1) | 46 | 283 | 481 |  |  |  |
| AUAAAACAUGAGGAUCACCCAUGUCAACAAAGUCGAGGAUAUGGGCAAAUUAAAUAAGAACCAGAAGGCGAAUAAU [salish99_ss1_r3_024] (puzzle: Same State 1) | 33.3 | 184 | 232 |  |  |  |
| AUAAAACAUGAGGAUCACCCAUGUCAACAAAGUCUAGGAUAUGGGCAAAUAAAAUAAGAACCAGAAGGCGAAUAAU [salish99_ss1_r3_051] (puzzle: Same State 1) | 167 | 177 | 178 |  |  |  |
| AUAAAACAUGAGGAUCACCCAUGUCUACAAAGUCGAGGAUAUGGGCAAAUAAAAUAAGAACCAGAAGGCGAAUAAU [salish99_ss1_r3_044] (puzzle: Same State 1) | 62.6 | 223 | 275 |  |  |  |
| AUAAACAGGCUAGGAUAUCCGGAAACUACAGGGCACAACCCUAUAGACAUGAGGAUCACCCAUGUGGAGAAGGAGCCACAUGAA [Ceesis] (Eterna round: R96, puzzle: Same State NG 2) |  |  |  | 40.6 | 156 | 195 |
| AUAAGGCAAGCUUUUUUCUCGUUGUGUAAACAUGAGGAUCACCCAUGUGCUCGCCCUGGAUCUUUGGAUCGCAGAAA [Rarisooron] (puzzle: Sensor for hsa-mir-208a) | 104 | 33.6 | 119 |  |  |  |
| AUAAGUUUGAUGCUCGUCCCUCCGUACAGACAUGAGGAUCACCCAUGUAGUCGGGAAGUAGCCCGGCCAGUAUGGCC [Biraza] (puzzle: Sensor for hsa-mir-208a) | 15.9 | 12.6 | 15 |  |  |  |
| AUAAGUUUGAUGCUCGUCUCUCCGUACAGACAUGAGGAUCACCCAUGUAGCCGGGAAGUAGCCCGACCAGUAUGGCC [Isriinus] (puzzle: Sensor for hsa-mir-208a) | 72.2 | 23.9 | 93.7 |  |  |  |
| AUACAUGAGGAUCACCCAUGUAAUUAAUUAACUUGUAAGAUCAAGGAUAUCAGCUCGAAUAGAGCUGAGAAGGUGAUCACAUGU [SSNG3/21-C1] (Eterna round: R96, puzzle: Same State NG 3) |  |  |  |  | 105 |  |
| AUACUGUACCGAGGAUAUCCAUUUUUCUAACAUGAGGAUCACCCAUGUGAAGGGAUUGAGUUGUAGGAGAAGGCGGUAUAGUAU [JR_SSNG2_Sub062] (Eterna round: R96, puzzle: Same State NG 2) |  |  |  | 14.8 | 11.6 | 21.5 |
| AUAGUUGCCGAAGGAUAUGAUGAGGAUCACCCAUCAGAAGGUCGGCUAUUGGGUGGAUAUGAGGAUCACCCGUGUUCUUUGGUC (Eterna round: R96, puzzle: Same State NG 1) |  |  |  | 22.4 | 16.7 | 22.9 |
| AUAUGAGGAGCAGGAUAUGCGGAGAAGAAAGAAGCAGAAGGGCUCAUGGGACAACAUGAGGAUCACCCAUGUUCUCCGCGAUGA [AK SSNG1-V2-3.2] (Eterna round: R96, puzzle: Same State NG 1) |  |  |  | 80.2 | 298 | 523 |
| AUCAUAGUAGCGCAGGAUAUCCAGGUCGAGACAUGAGGAUCACCCAUGUCAGCAGGAGGACCAGAGGAGAAGGGUGAGAAAAUAA [Bimaan] (puzzle: Same State 2) | 12.5 | 14.2 | 16.7 |  |  |  |

| Sequence | apparent KD of MS2 coat protein [1] [nM] | apparent KD of MS2 coat protein [2] [nM] | apparent KD of MS2 coat protein [3] [nM] | apparent KD of MS2 coat protein (input ligand: FMN 200 uM) [nM] | apparent KD of MS2 coat protein [4] [nM] | apparent KD of MS2 coat protein (input ligand: none) [nM] |
| --- | --- | --- | --- | --- | --- | --- |
| AUCAUUUAUGCAGGAUAUGAUUAACAUGAGGAUCACCCAUGUGGUGUUGUGAGUAAGGAGAGUGAUCAGAAGGGCAUUUUUUUU [JMF's solution 72] (Eterna round: R96, puzzle: Same State NG 2) |  |  |  | 476 | 296 | 482 |
| AUCCUACAUGAGGAUCACCCAUGUGACGCCUCGAUAGGAUAUGCGUGUGCCUUGGCGCAUGCAGAAGGAUUGUUGC [JL Aveso mod 7] (Eterna round: R96, puzzle: Same State 1) |  |  |  |  | 20.3 |  |
| AUCCUACAUGAGGAUCACCCAUGUGACGCCUCGAUAGGAUAUGCGUGUGCCUUGGCGCAUGCAGAAGGAUUGUUGC [JL Aveso mod 7] (puzzle: Same State 1) | 69.2 | 17.5 | 27.1 |  |  |  |
| AUGCCAAAACGAGGAUAUGGAGCCUUAUUGGCUCCAGAAGGUGUGACAUGAGGAUCACCCAUGUGGCAGUGGUCUAAUGACCAC [Eli NG1ss - 40] (Eterna round: R96, puzzle: Same State NG 1) |  |  |  | 94.2 | 105 | 133 |
| AUGUGGAAGCCACAGGAUAUACUAGGGUACACAUGAGGAUCACCCAUGUGCGGCUAAAAGUGCUAGUAGAAGGGUGGUAAAGAAA [Diartire] (puzzle: Same State 2) | 13.8 | 12.5 | 15 |  |  |  |
| AUGUUUAAUGCAGGAUAUGAUUAACAUGAGGAUCACCCAUGUGGUGUUGUGAGUAAGGAGAGUGAUCAGAAGGGCAUUUUUUUU [JMF's solution 101] (Eterna round: R96, puzzle: Same State NG 2) |  |  |  |  | 516 |  |
| AUUAAACAUGAGGAUCACCCAUGUCAACAAAGUCGAGGAUAUGGGCAAAUAAAAUAAGAACCAGAAGGCGACUAAU [salish99_ss1_r3_071] (puzzle: Same State 1) |  | 22.3 |  |  |  |  |
| AUUAAACAUGAGGAUCACCCAUGUCAACAUAGUCGAGGAUAUGGGCAAAUAAAAUAAGAACCAGAAGGCGAAUAAU [salish99_ss1_r3_075] (puzzle: Same State 1) | 45.2 | 266 | 335 |  |  |  |
| AUUAAUUAAUUAAUACAUGAGGAUCACCCAUGUAAUAAGAUCAAGGAUAUCAGCUCGAUUAGAGCUGAGAAGGUGAUCACAUGU [SSNG3/17-B2] (Eterna round: R96, puzzle: Same State NG 3) |  |  |  |  | 509 |  |
| AUUAUACAUGAGGAUCACCCAUGUAAUUAAUCUAGUAAGAUCUAGGAUAUCAGCUCGAAUAGAGCUGAGAAGGAGAUCACAUGU [SSNG3/20-D1] (Eterna round: R96, puzzle: Same State NG 3) |  |  |  |  | 45.8 |  |
| AUUAUACAUGAGGAUCACCCAUGUAAUUAAUUAAUUAAGAUCAAGGAUAUCAGCUCGUUUAGAGCUGAGAAGGUGAUCACAUGU [SSNG3/20-B3] (Eterna round: R96, puzzle: Same State NG 3) |  |  |  |  | 147 |  |
| AUUAUACAUGAGGAUCACCCAUGUAAUUAAUUAAUUAAGAUCUAGGAUAUCAGCUCGUUUAGAGCUGAGAAGGAGAUCACAUGU [SSNG3/20-C3] (Eterna round: R96, puzzle: Same State NG 3) |  |  |  |  | 23.3 |  |
| AUUAUUAAUGCAGGAUAUGAAUAACAUGAGGAUCACCCAUGUGGUGUUGUGAGUAAGGAGAGAGAUCAGAAGGGCAUUUUUUUU [JMF's solution 4] (Eterna round: R96, puzzle: Same State NG 2) |  |  |  | 349 | 225 | 258 |
| AUUAUUUAUGCAGGAUAUGAUUAACAUGAGGAUCACCCAUGUGGUGUUGUGAGUAAGGAGAGUGAUCAGAAGGGCAUUGUUUUU [JMF's solution 46] (Eterna round: R96, puzzle: Same State NG 2) |  |  |  | 1450 | 473 | 475 |
| AUUAUUUAUGCAGGAUAUGAUUAACAUGAGGAUCACCCAUGUGGUGUUGUGAGUAAGGAGAGUGAUCAGAAGGGCAUUUGUUUU [JMF's solution 48] (Eterna round: R96, puzzle: Same State NG 2) |  |  |  | 386 | 321 | 402 |
| AUUGCUUACGCAGGAUAUGAUGCGAAAAUUGCGUCAGAAGGGUGAAGUGACUCGUUGCAACAAGACAUGAGGAUCACCCAUGUC [SameState NG1 #92] (Eterna round: R96, puzzle: Same State NG 1) |  |  |  | 135 | 116 | 199 |
